From paper PMC8906176

Target: C4-AM2 monobody
Test: BLI

Row | Substance | Kd [nM]
1 | SARS-CoV-2 S protein receptor-binding domain, Alpha variant (B.1.1.7) (from UniProt P0DTC2) (domain or fragment) | < 0.01
2 | SARS-CoV-2 S protein receptor-binding domain, Beta variant (B.1.351) (from UniProt P0DTC2) (domain or fragment) | 6.3
